In data set [1] the target is PsiM (Psilocybe cubensis, UniProt P0DPA9). Kind of data set: UHPLC-MS quantification of baeocystin and psilocybin. The settings on record: 3 mM SAM, 1 mM norbaeocystin, 1 μM PsiM, pH 8.0, 25 °C; competitive. The class given is biochemical.
Data set [2] deals with T1, SahH (Psilocybe cubensis, UniProt A0ACB8GS59).
T1 sequence (A0ACB8GS59 1-430): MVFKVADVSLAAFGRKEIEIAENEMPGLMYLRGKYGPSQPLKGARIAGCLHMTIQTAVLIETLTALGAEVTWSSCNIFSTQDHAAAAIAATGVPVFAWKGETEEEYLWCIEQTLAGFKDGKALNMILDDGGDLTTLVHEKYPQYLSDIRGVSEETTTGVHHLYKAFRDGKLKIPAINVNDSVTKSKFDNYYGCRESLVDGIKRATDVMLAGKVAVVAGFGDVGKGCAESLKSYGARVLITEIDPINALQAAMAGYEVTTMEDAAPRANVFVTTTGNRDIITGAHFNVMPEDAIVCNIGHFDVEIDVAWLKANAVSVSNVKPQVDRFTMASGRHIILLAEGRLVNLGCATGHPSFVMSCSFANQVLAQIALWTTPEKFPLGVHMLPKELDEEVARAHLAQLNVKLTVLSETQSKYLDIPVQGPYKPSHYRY
Kind of data set: Ellman's reagent. The class given is biochemical. The settings on record: hydrolytic direction, 100 μM NAD+, pH 7.8, 34 °C. For orientation: Ellman's reagent forms a yellow product with free thiols.

The target in data set [3] is T1, SahH. The data set can be described thus: inhibition of SAH hydrolysis. The class given is biochemical. The settings on record: hydrolytic direction.
Substrate in data set [4]: Nc1ncnc2c1ncn2[C@@H]1O[C@H](CO)[C@@H](O)[C@H]1O
Kind of data set: purified protein.

Substrate in data set [5]: Nc1ncnc2c1ncn2[C@@H]1O[C@H](COP(=O)(O)OP(=O)(O)OP(=O)(O)O)[C@@H](O)[C@H]1O
The data set can be described thus: purified protein. The following applies: adenosine co-substrate, 10 mM MgCl2, pH 7.8, 30 °C.

Substrate in data set [6]: N[C@@H](CCS)C(=O)O
The data set can be described thus: purified protein. The following applies: synthetic direction, co-substrate adenosine.

[7] abbreviates: ATP co-substrate, 10 mM MgCl2, pH 7.8, 30 °C.
Setting [8] is: synthetic direction, co-substrate L-homocysteine.

Broadly, the Km is the concentration of substrate that gives half-maximal velocity. On to `Nc1ncnc2c1ncn2[C@@H]1O[C@H](CSCC[C@H](N)C(=O)O)[C@@H](O)[C@H]1O` [SAH], for which, in data set [1], the “inhibition at 1-16 mM” value was “SAH competitively inhibited PsiM′s activity in a concentration‐dependent manner”. Also, the Km in data set [2] stood at 57.2 µM.

For the molecule `Nc1ncnc2[nH]cnc12` [Ade], in data set [3] (tenfold excess over SAH), the inhibition result is on record as “to a lower extent—by tenfold excess of Ade over the SAH substrate”.

In the case of `Nc1ncnc2c1ncn2[C@@H]1O[C@H](CO)[C@@H](O)[C@H]1O` [Ado], the inhibition entry in data set [3] (product inhibition) is “SAH hydrolysis is strongly inhibited by elevated Ado concentrations”.

B1: AdoK (Psilocybe cubensis) (protein)
chain: MSAPSYSLFCMGNPLLDMQVRNGEQLLEKYGLKANDAILADEKQSEIYDELVKEHQVTYVAGGAAQNAARGAAYILPPGSVVYTGAVGDDELAEQLKAANKREGLDQVYQVKKGEKTGACAVVITGHHRSLVTTLRVAEKFEKSHLSSPEVAPLVENAKFFYIEGYFLTHGVESALELSSKASAAGKTFVMNLSAPFIAQFFGEQLNQILPHTDIIIGNEAEAEAWATAHNYASTTDLASIAKQIALLPKSNPARPRVVVFTHGAQSTVLVSADRPDEARVFAVDVLADDKIVDTNGAGDAFAGGFVGALVAGKDLEGAVLAGHALARQCVQQVGPQYPWPKVDIL
As a reminder, the kcat is the maximal rate divided by the concentration of active sites. Broadly, the kcat/Km is the turnover number divided by the Michaelis constant. B1: in data set [4] (setting [7]), the Km was 33.6 µM, the turnover number (kcat) was 1400 s⁻¹ and the catalytic efficiency (kcat/Km) was 4.2e+07 M⁻¹ s⁻¹. Besides, in data set [5], the Km was found to be 11.6 µM, the turnover number (kcat) is 1400 s⁻¹ and the specificity constant (kcat/Km) stood at 1.2e+08 M⁻¹ s⁻¹.

B2: SahH (Psilocybe cubensis) (protein)
chain: MVFKVADVSLAAFGRKEIEIAENEMPGLMYLRGKYGPSQPLKGARIAGCLHMTIQTAVLIETLTALGAEVTWSSCNIFSTQDHAAAAIAATGVPVFAWKGETEEEYLWCIEQTLAGFKDGKALNMILDDGGDLTTLVHEKYPQYLSDIRGVSEETTTGVHHLYKAFRDGKLKIPAINVNDSVTKSKFDNYYGCRESLVDGIKRATDVMLAGKVAVVAGFGDVGKGCAESLKSYGARVLITEIDPINALQAAMAGYEVTTMEDAAPRANVFVTTTGNRDIITGAHFNVMPEDAIVCNIGHFDVEIDVAWLKANAVSVSNVKPQVDRFTMASGRHIILLAEGRLVNLGCATGHPSFVMSCSFANQVLAQIALWTTPEKFPLGVHMLPKELDEEVARAHLAQLNVKLTVLSETQSKYLDIPVQGPYKPSHYRY
As to B2, in data set [6], the Km is 19.8 µM, the turnover number (kcat) was 1.8 s⁻¹ and the kcat/Km was 91000 M⁻¹ s⁻¹. Further, in data set [4] (setting [8]), the Michaelis constant (Km) worked out at 56.7 µM, the catalytic constant (kcat) worked out at 1.8 s⁻¹ and the kcat/Km was 31000 M⁻¹ s⁻¹.

These data come from article PMC7317531 (Chembiochem, 2020).
